# Reference: article PMC9482650, “Quantitative fragmentomics allow affinity mapping of interactomes” (Nature Communications, 2022)
# T1: PDZRN3_1, Q9UPQ7
# T1 sequence (Q9UPQ7 244-349, limits assumed, looked up): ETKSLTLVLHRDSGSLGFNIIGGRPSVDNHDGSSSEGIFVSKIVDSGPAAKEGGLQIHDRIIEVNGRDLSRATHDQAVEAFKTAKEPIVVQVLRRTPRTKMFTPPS
# T2: HTRA3, P83110
# T2 sequence (P83110 354-453, limits assumed, looked up): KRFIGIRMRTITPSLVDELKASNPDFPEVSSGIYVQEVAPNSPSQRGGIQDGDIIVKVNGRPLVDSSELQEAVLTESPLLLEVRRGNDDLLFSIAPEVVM
# T3: MPDZ_10, O75970
# T3 sequence (O75970 1624-1722, limits assumed, looked up): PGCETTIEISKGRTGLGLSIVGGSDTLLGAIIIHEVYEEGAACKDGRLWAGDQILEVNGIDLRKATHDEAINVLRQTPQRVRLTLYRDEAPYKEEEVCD
# T4: FRMPD1, Q5SYB0
# T4 sequence (Q5SYB0 52-145, limits assumed, looked up): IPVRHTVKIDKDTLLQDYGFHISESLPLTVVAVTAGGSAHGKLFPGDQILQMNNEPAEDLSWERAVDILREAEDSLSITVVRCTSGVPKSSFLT
# T5: DFNB31_2, Q9P202
# T5 sequence (Q9P202 274-371, limits assumed, looked up): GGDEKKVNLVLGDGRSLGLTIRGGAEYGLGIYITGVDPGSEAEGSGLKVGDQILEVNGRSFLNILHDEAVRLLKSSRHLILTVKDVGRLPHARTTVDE
# T6: SNTB1, Q13884
# T6 sequence (Q13884 107-205, limits assumed, looked up): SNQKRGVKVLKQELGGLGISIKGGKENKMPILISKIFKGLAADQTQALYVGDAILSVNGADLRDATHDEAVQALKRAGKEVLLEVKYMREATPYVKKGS
# T7: LRRC7, Q96NW7
# T7 sequence (Q96NW7 1440-1537, limits assumed, looked up): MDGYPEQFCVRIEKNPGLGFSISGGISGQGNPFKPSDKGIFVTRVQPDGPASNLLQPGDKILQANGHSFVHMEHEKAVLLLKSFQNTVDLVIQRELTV
# T8: MPP7, Q5T2T1
# T8 sequence (Q5T2T1 134-230, limits assumed, looked up): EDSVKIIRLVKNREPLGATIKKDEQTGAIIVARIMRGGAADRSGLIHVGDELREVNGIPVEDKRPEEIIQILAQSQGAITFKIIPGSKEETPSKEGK
# T9: RHPN1, Q8TCX5
# T9 sequence (Q8TCX5 508-602, limits assumed, looked up): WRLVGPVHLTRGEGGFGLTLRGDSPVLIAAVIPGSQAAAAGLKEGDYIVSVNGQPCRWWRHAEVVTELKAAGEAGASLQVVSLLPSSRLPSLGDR
# T10: ARHGAP21, Q5T5U3
# T10 sequence (Q5T5U3 45-169, limits assumed, looked up): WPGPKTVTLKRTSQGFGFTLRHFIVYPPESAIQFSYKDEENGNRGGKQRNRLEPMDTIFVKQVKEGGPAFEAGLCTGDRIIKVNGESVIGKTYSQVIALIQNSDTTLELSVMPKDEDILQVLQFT
# T11: MPDZ_5, O75970
# T11 sequence (O75970 695-796, limits assumed, looked up): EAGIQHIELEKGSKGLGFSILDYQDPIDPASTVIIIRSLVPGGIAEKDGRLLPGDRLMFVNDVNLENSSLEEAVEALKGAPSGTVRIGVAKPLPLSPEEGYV
# B1: SLC5A12, Q1EHB4 (peptide)
# chain: NNMAFETTHF
# Target: T1, PDZRN3_1, Q9UPQ7
# Assay: holdup assay
# Parameters: key: below the threshold = too weak to quantify, mostly under pKd 3.1 to 4
# Conditions: plain residues with an end cap or a label only (N-terminal biotin on a linker: ado-ado)
row,Binder,pKd
1,B1,below the threshold

# Target: DLG4_1, P78352
# Sequence (P78352 62-152): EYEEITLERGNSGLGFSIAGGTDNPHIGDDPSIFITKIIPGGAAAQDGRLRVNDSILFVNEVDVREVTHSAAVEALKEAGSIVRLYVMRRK
# Assay: holdup assay
# Parameters: key: below the threshold = too weak to quantify, mostly under pKd 3.1 to 4
# Conditions: plain residues with an end cap or a label only (N-terminal biotin on a linker: ado-ado)
row,Binder,pKd
1,B1,below the threshold

# Target: FRMPD2_2, Q68DX3
# Sequence (Q68DX3 944-1038): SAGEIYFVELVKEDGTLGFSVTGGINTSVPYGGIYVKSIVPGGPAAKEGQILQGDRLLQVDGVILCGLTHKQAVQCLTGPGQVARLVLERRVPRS
# Assay: holdup assay
# Parameters: key: below the threshold = too weak to quantify, mostly under pKd 3.1 to 4
# Conditions: plain residues with an end cap or a label only (N-terminal biotin on a linker: ado-ado)
row,Binder,pKd
1,B1,below the threshold

# Target: GORASP1, Q9BQQ3
# Sequence (Q9BQQ3 1-208): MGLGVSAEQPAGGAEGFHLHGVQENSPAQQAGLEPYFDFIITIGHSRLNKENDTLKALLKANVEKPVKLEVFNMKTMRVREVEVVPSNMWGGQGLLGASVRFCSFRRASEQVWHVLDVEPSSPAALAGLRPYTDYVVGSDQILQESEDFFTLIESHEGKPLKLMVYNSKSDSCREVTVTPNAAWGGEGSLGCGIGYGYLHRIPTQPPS
# Assay: holdup assay
# Parameters: key: below the threshold = too weak to quantify, mostly under pKd 3.1 to 4
# Conditions: plain residues with an end cap or a label only (N-terminal biotin on a linker: ado-ado)
row,Binder,pKd
1,B1,below the threshold

# Target: T2, HTRA3, P83110
# Assay: holdup assay
# Parameters: key: below the threshold = too weak to quantify, mostly under pKd 3.1 to 4
# Conditions: plain residues with an end cap or a label only (N-terminal biotin on a linker: ado-ado)
row,Binder,pKd
1,B1,below the threshold

# Target: T3, MPDZ_10, O75970
# Assay: holdup assay
# Parameters: key: below the threshold = too weak to quantify, mostly under pKd 3.1 to 4
# Conditions: plain residues with an end cap or a label only (N-terminal biotin on a linker: ado-ado)
row,Binder,pKd
1,B1,below the threshold

# Target: SCRIB_1, Q14160
# Sequence (Q14160 718-814): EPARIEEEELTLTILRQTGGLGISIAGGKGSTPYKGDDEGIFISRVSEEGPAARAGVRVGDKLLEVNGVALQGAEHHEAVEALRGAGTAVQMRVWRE
# Assay: holdup assay
# Parameters: key: below the threshold = too weak to quantify, mostly under pKd 3.1 to 4
# Conditions: plain residues with an end cap or a label only (N-terminal biotin on a linker: ado-ado)
row,Binder,pKd
1,B1,4.14

# Target: TJP1_2, Q07157
# Sequence (Q07157 181-274): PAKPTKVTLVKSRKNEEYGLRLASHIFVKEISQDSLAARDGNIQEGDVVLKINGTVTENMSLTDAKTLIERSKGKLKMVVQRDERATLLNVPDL
# Assay: holdup assay
# Parameters: key: below the threshold = too weak to quantify, mostly under pKd 3.1 to 4
# Conditions: plain residues with an end cap or a label only (N-terminal biotin on a linker: ado-ado)
row,Binder,pKd
1,B1,below the threshold

# Target: T4, FRMPD1, Q5SYB0
# Assay: holdup assay
# Parameters: key: below the threshold = too weak to quantify, mostly under pKd 3.1 to 4
# Conditions: plain residues with an end cap or a label only (N-terminal biotin on a linker: ado-ado)
row,Binder,pKd
1,B1,below the threshold

# Target: T5, DFNB31_2, Q9P202
# Assay: holdup assay
# Parameters: key: below the threshold = too weak to quantify, mostly under pKd 3.1 to 4
# Conditions: plain residues with an end cap or a label only (N-terminal biotin on a linker: ado-ado)
row,Binder,pKd
1,B1,below the threshold

# Target: NHERF4_4, Q86UT5
# Sequence (Q86UT5 464-550): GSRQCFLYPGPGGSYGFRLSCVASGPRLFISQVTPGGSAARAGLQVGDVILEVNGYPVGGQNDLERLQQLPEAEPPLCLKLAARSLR
# Assay: holdup assay
# Parameters: key: below the threshold = too weak to quantify, mostly under pKd 3.1 to 4
# Conditions: plain residues with an end cap or a label only (N-terminal biotin on a linker: ado-ado)
row,Binder,pKd
1,B1,below the threshold

# Target: DLG2_3, Q15700
# Assay: holdup assay
# Parameters: key: below the threshold = too weak to quantify, mostly under pKd 3.1 to 4
# Conditions: plain residues with an end cap or a label only (N-terminal biotin on a linker: ado-ado)
row,Binder,pKd
1,B1,3.7

# Target: GRIP2_6, Q9C0E4
# Sequence (Q9C0E4 648-740): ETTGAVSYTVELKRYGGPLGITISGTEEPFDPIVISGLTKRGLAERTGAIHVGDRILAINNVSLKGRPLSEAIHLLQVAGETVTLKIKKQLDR
# Assay: holdup assay
# Parameters: key: below the threshold = too weak to quantify, mostly under pKd 3.1 to 4
# Conditions: plain residues with an end cap or a label only (N-terminal biotin on a linker: ado-ado)
row,Binder,pKd
1,B1,below the threshold

# Target: T6, SNTB1, Q13884
# Assay: holdup assay
# Parameters: key: below the threshold = too weak to quantify, mostly under pKd 3.1 to 4
# Conditions: plain residues with an end cap or a label only (N-terminal biotin on a linker: ado-ado)
row,Binder,pKd
1,B1,below the threshold

# Target: SCRIB_3, Q14160
# Sequence (Q14160 999-1103): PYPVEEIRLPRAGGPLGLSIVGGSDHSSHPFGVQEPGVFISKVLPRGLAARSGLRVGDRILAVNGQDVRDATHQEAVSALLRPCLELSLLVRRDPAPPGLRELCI
# Assay: holdup assay
# Parameters: key: below the threshold = too weak to quantify, mostly under pKd 3.1 to 4
# Conditions: plain residues with an end cap or a label only (N-terminal biotin on a linker: ado-ado)
row,Binder,pKd
1,B1,4.02

# Target: T7, LRRC7, Q96NW7
# Assay: holdup assay
# Parameters: key: below the threshold = too weak to quantify, mostly under pKd 3.1 to 4
# Conditions: plain residues with an end cap or a label only (N-terminal biotin on a linker: ado-ado)
row,Binder,pKd
1,B1,below the threshold

# Target: Inadl_1, Q8NI35
# Sequence (Q8NI35 113-229): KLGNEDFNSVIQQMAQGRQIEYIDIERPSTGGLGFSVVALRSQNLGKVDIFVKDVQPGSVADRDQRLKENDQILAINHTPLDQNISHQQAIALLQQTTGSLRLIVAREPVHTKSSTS
# Assay: holdup assay
# Parameters: key: below the threshold = too weak to quantify, mostly under pKd 3.1 to 4
# Conditions: plain residues with an end cap or a label only (N-terminal biotin on a linker: ado-ado)
row,Binder,pKd
1,B1,below the threshold

# Target: T8, MPP7, Q5T2T1
# Assay: holdup assay
# Parameters: key: below the threshold = too weak to quantify, mostly under pKd 3.1 to 4
# Conditions: plain residues with an end cap or a label only (N-terminal biotin on a linker: ado-ado)
row,Binder,pKd
1,B1,below the threshold

# Target: T9, RHPN1, Q8TCX5
# Assay: holdup assay
# Parameters: key: below the threshold = too weak to quantify, mostly under pKd 3.1 to 4
# Conditions: plain residues with an end cap or a label only (N-terminal biotin on a linker: ado-ado)
row,Binder,pKd
1,B1,4.08

# Target: IL16_1, Q14005
# Sequence (Q14005 210-306): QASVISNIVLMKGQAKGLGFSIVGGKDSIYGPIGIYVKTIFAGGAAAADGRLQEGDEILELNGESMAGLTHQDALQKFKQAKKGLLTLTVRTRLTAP
# Assay: holdup assay
# Parameters: key: below the threshold = too weak to quantify, mostly under pKd 3.1 to 4
# Conditions: plain residues with an end cap or a label only (N-terminal biotin on a linker: ado-ado)
row,Binder,pKd
1,B1,below the threshold

# Target: T10, ARHGAP21, Q5T5U3
# Assay: holdup assay
# Parameters: key: below the threshold = too weak to quantify, mostly under pKd 3.1 to 4
# Conditions: plain residues with an end cap or a label only (N-terminal biotin on a linker: ado-ado)
row,Binder,pKd
1,B1,3.94

# Target: PDLIM1, O00151
# Sequence (O00151 1-87): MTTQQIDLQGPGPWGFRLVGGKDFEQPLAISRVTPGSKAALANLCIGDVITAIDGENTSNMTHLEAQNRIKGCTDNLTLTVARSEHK
# Assay: holdup assay
# Parameters: key: below the threshold = too weak to quantify, mostly under pKd 3.1 to 4
# Conditions: plain residues with an end cap or a label only (N-terminal biotin on a linker: ado-ado)
row,Binder,pKd
1,B1,below the threshold

# Target: Inadl_3, Q8NI35
# Sequence (Q8NI35 359-469): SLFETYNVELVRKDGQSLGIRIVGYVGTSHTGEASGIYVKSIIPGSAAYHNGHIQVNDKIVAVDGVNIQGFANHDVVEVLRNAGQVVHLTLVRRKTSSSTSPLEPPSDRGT
# Assay: holdup assay
# Parameters: key: below the threshold = too weak to quantify, mostly under pKd 3.1 to 4
# Conditions: plain residues with an end cap or a label only (N-terminal biotin on a linker: ado-ado)
row,Binder,pKd
1,B1,below the threshold

# Target: GORASP2, Q9H8Y8
# Assay: holdup assay
# Parameters: key: below the threshold = too weak to quantify, mostly under pKd 3.1 to 4
# Conditions: plain residues with an end cap or a label only (N-terminal biotin on a linker: ado-ado)
row,Binder,pKd
1,B1,below the threshold

# Target: Inadl_4, Q8NI35
# Sequence (Q8NI35 547-651): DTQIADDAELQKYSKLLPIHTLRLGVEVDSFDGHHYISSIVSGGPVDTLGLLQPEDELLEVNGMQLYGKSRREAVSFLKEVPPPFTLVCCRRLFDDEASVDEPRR
# Assay: holdup assay
# Parameters: key: below the threshold = too weak to quantify, mostly under pKd 3.1 to 4
# Conditions: plain residues with an end cap or a label only (N-terminal biotin on a linker: ado-ado)
row,Binder,pKd
1,B1,below the threshold

# Target: T11, MPDZ_5, O75970
# Assay: holdup assay
# Parameters: key: below the threshold = too weak to quantify, mostly under pKd 3.1 to 4
# Conditions: plain residues with an end cap or a label only (N-terminal biotin on a linker: ado-ado)
row,Binder,pKd
1,B1,below the threshold

# Target: NHERF4_1, Q86UT5-2
# Sequence (Q86UT5 other isoform, or with tags, fused parts or gaps): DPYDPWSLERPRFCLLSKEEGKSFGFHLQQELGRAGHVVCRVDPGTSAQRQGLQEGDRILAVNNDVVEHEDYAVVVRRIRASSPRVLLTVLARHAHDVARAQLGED
# Assay: holdup assay
# Parameters: key: below the threshold = too weak to quantify, mostly under pKd 3.1 to 4
# Conditions: plain residues with an end cap or a label only (N-terminal biotin on a linker: ado-ado)
row,Binder,pKd
1,B1,4.35
